From US9988424 (DUKE UNIVERSITY, dated 2018)
Where a chain is given by its changes, count along the chain named. Read-outs that look alike come from different tables or passages of the source.

How the values were obtained:
[1] = biological target: C.CAP206 gp140CF.12 (HIV-1); assay: ELISA
[2] = biological target: AE.A244 V1V2 Tags (HIV-1); assay: ELISA
[3] = biological target: T1, AE.A244 gp120 delta 11 (HIV-1); assay: ELISA
T1 construct: also called E.A244gp120Δ11; AE.A244 Δ11 gp120

[4] = biological target: C.1086 V1V2 Tags (HIV-1); assay: ELISA
[5] = biological target: T2, gp70 C.1086 V1/V2 (HIV-1 V1V2 on murine leukemia virus gp70); assay: ELISA
T2 construct: also called C.gp70 1086C V1V2; C.1086gp70V1V2
T2 chain: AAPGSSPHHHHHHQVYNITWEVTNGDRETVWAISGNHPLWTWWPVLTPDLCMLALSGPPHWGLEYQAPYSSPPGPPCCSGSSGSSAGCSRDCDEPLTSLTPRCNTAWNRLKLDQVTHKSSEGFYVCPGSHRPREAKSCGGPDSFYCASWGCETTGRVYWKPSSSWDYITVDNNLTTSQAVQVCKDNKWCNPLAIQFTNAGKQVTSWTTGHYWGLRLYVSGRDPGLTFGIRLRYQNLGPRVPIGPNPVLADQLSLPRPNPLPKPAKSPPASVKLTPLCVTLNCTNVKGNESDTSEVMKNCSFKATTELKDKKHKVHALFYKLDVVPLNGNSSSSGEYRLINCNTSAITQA

[6] = biological target: AE.A244 V1V2 Tags (HIV-1); assay: ELISA; remark: listed apart in the source
[7] = biological target: T3, gp70 B.CaseA2 V1/V2/V169K (HIV-1 V1V2 on murine leukemia virus gp70); assay: ELISA
T3 chain: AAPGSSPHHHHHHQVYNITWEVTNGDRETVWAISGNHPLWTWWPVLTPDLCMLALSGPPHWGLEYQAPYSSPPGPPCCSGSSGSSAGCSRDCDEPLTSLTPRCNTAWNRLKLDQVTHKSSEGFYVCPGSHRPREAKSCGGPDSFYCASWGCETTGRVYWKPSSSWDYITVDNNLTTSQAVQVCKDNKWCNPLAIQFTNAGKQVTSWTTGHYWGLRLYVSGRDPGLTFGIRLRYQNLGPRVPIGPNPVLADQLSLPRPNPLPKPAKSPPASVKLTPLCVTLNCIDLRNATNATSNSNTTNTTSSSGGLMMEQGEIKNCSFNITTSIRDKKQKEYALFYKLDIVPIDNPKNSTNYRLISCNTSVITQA

[8] = biological target: T4, gp70 B.CaseA2 V1/V2/V169K/E172V/E173H (HIV-1 V1V2 on murine leukemia virus gp70); assay: ELISA
T4 construct: also called gp70 B.CaseA2 V1/V2 Mut3
T4 chain: T3 chain with E332V, Y333H

[9] = biological target: AE.A244 V1V2 Tags (HIV-1); assay: ELISA; remark: listed apart in the source
[10] = biological target: T1, AE.A244 gp120 delta 11; assay: ELISA; remark: listed apart in the source
[11] = biological target: C.1086 V1V2 Tags (HIV-1); assay: ELISA; remark: listed apart in the source
[12] = biological target: T2, gp70 C.1086 V1/V2; assay: ELISA
[13] = biological target: Env of AE.92TH023 virus (HIV-1); assay: cell-based or functional assay
[14] = biological target: Env of 92TH023 K169Q virus (HIV-1); assay: cell-based or functional assay
[15] = biological target: Env of TH023.6.I181L virus (HIV-1); assay: cell-based or functional assay
[16] = biological target: Env of 703357.c02 virus (HIV-1); assay: cell-based or functional assay
[17] = biological target: Env of 703357.2.Q169K virus (HIV-1); assay: cell-based or functional assay
[18] = biological target: Env of 703357.2.Q169KR170Q virus (HIV-1); assay: cell-based or functional assay
[19] = biological target: Env of 703357.2.I181L virus (HIV-1); assay: cell-based or functional assay
[20] = biological target: Env of 703357.2.Q169KI181L virus (HIV-1); assay: cell-based or functional assay
[21] = biological target: Env of 703357.2.Q169KR170QI181L virus (HIV-1); assay: cell-based or functional assay
[22] = biological target: Env of 427299.c12 virus (HIV-1); assay: cell-based or functional assay
[23] = biological target: Env of 427299.c12.Q169K virus (HIV-1); assay: cell-based or functional assay
[24] = biological target: Env of 427299.c12.H81L virus (HIV-1); assay: cell-based or functional assay
[25] = biological target: Env of 427299.c12.KL.Q169K/I181L virus (HIV-1); assay: cell-based or functional assay
[26] = biological target: Env of CM244NW.4.K169Q virus (HIV-1); assay: cell-based or functional assay
[27] = biological target: Env of CM244NW.6.I181L virus (HIV-1); assay: cell-based or functional assay

B1: CH59 (antibody, V domains shown)
VH: EVQLVESGGGLVQPGRSLRLSCAASGFTFDDGAMHWVRQAPGKGLEWVSGISWNSNIIAYADSVKGRFTISRDNAKNSLYLEMNSLRVEDTALYYCAKDSPRGELPLNYWGQGTLVTVSS
VL: SYELTQPPSVSVSPGQTARITCSGDALPKNYAYWYQQKSGQAPVLVIYEDSKRPSGIPERFSGSSSGTMATLTISGAQVEDEADYYCYSTDSSGNHRVFGGGTKLTVL
notes: also called mAb CH59
[1]
  EC50: > 667 nM
[2]
  EC50: 0.014 nM
[3]
  EC50: 0.087 nM
[4]
  EC50: 0.1 nM
[5]
  EC50: 0.067 nM
[6]
  EC50: 0.0018 nM
[7]
  binding result: no binding
[8]
  EC50: 0.02 µg/mL
[9]
  EC50: 0.014 nM
[10]
  EC50: 0.087 nM
[11]
  EC50: 0.1 nM
[12]
  EC50: 0.067 nM
[13]
  ID50 assayed in TZM-bl cells, TH023.6: 1.92 µg/mL
[14]
  ID50 assayed in TZM-bl cells, TH023.6.K169Q: > 50 µg/mL
[15]
  ID50 assayed in TZM-bl cells, TH023.6.I181L: 5.33 µg/mL
[16]
  ID50 assayed in TZM-bl cells, 703357.c02: > 50 µg/mL
[17]
  ID50 assayed in TZM-bl cells, 703357.2.Q169K: > 50 µg/mL
[18]
  ID50 assayed in TZM-bl cells, 703357.2.Q169KR170Q: > 50 µg/mL
[19]
  ID50 assayed in TZM-bl cells, 703357.2.I181L: > 50 µg/mL
[20]
  ID50 assayed in TZM-bl cells, 703357.2.Q169KI181L: > 50 µg/mL
[21]
  ID50 assayed in TZM-bl cells, 703357.2.Q169KR170QI181L: > 50 µg/mL
[22]
  ID50 assayed in TZM-bl cells, 427299.c12: > 50 µg/mL
[23]
  ID50 assayed in TZM-bl cells, 427299.c12.Q169K: > 50 µg/mL
[24]
  ID50 assayed in TZM-bl cells, 427299.c12.H81L: > 50 µg/mL
[25]
  ID50 assayed in TZM-bl cells, 427299.c12.KL.Q169K/I181L: > 50 µg/mL
[26]
  ID50 assayed in TZM-bl cells, CM244NW.4.K169Q: > 50 µg/mL
[27]
  ID50 assayed in TZM-bl cells, CM244NW.6.I181L: > 50 µg/mL
